In publication PMC8838988:

Target: PiCDPK1, full-length 6X N-terminal His-fusion protein (Petunia inflata)
Sequence (main, as listed by the source): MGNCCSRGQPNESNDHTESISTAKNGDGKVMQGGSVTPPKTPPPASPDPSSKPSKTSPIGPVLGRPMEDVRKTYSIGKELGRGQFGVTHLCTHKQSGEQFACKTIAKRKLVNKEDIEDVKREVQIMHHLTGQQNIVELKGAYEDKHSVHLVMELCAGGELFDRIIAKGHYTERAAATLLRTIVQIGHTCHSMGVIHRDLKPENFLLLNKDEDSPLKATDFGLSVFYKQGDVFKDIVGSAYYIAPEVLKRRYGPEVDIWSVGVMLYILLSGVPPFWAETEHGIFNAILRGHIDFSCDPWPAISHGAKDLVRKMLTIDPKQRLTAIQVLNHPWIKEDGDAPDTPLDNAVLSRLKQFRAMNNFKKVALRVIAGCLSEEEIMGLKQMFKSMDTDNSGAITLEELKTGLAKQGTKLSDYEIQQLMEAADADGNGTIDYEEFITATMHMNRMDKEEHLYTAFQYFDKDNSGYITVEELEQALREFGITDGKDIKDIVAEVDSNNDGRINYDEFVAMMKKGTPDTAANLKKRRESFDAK

A Km of the phosphorylation of PiRhoGDI1 by PiCDPK1 (Michaelis-Menten conditions) of 2.2 µM and a Vmax of the phosphorylation of PiRhoGDI1 by PiCDPK1 (Michaelis-Menten conditions) of 1920 pmol/min/mg were found for “PiRhoGDI1, full-length 6X N-terminal His-fusion protein (natural protein)” in this work.
